Laboratory results as given in patent US20100144634A1 (published 2010).
Blank lines part the entries; values can stand above or below the binder they belong to.

Tests used:
[1] = target: T1, von Willebrand factor (VWF), purified plasma-derived, multimeric, native (UniProt P04275 764-2813); assay: pull-down on VWF-Affi-gel 10, western blot with anti-V5 (FIG. 5B); the microtiter result is given with a literature citation
T1 construct: mature; human is implied; also called pvWF; plasma VWF
Procedure: FIG. 5. Binding of ADAMTS13 (or variants) to VWF immobilized on solid surfaces. A. Binding of ADAMTS13 and variants to VWF immobilized on a microtiter plate: FL-A13, delCUB and MDTCS (0-200 nM) were incubated without (control) or with VWF (10 μg/ml, 100 μl/well) immobilized on a microtiter plate for 1 h. The bound ADAMTS13 and variants were determined by mouse anti-V5 IgG, followed by rabbit anti-mouse IgG, peroxidase-conjugated and OPD-H₂O₂. The KD (S) was determined by fitting the data into non-linear regression. B. Binding of ADAMTS13 and variants to immobilized VWF on Affi-gel 10: FL-A13, delCUB, MDTCS and metalloprotease domain (M) (˜50 nM) were incubated at 37° C. for 1 h without (−) or with (+) VWF covalently immobilized onto the Affi-gel 10. After extensive washing with TBS and 20 mM Tris-HCl, pH 7.5, […], the bound ADAMTS13 and variants were eluted from the beads with SDS-gel sample buffer and determined by Western blot with anti-V5. The amount of input FL-A13, delCUB, and MDTCS is the same with the signal of only FL-A13 shown in lane 1 (IN).
The binding of ADAMTS13 to immobilized Affi-gel 10 was also described previously²². […] The bound FL-A13 and variants were eluted from the beads by boiling them at 100° C. for 10 min and detected by Western blotting with anti-V5 IgG as described previously^{22;24;29}.

murine vWF = target: T2, murine vWF (murine, UniProt Q8CIZ8 764-2813, limits assumed); assay: microtiter binding assay, immobilised murine vWF
T2 construct: also called immobilized murine vWF
T2 sequence (Q8CIZ8 764-2813 limits assumed): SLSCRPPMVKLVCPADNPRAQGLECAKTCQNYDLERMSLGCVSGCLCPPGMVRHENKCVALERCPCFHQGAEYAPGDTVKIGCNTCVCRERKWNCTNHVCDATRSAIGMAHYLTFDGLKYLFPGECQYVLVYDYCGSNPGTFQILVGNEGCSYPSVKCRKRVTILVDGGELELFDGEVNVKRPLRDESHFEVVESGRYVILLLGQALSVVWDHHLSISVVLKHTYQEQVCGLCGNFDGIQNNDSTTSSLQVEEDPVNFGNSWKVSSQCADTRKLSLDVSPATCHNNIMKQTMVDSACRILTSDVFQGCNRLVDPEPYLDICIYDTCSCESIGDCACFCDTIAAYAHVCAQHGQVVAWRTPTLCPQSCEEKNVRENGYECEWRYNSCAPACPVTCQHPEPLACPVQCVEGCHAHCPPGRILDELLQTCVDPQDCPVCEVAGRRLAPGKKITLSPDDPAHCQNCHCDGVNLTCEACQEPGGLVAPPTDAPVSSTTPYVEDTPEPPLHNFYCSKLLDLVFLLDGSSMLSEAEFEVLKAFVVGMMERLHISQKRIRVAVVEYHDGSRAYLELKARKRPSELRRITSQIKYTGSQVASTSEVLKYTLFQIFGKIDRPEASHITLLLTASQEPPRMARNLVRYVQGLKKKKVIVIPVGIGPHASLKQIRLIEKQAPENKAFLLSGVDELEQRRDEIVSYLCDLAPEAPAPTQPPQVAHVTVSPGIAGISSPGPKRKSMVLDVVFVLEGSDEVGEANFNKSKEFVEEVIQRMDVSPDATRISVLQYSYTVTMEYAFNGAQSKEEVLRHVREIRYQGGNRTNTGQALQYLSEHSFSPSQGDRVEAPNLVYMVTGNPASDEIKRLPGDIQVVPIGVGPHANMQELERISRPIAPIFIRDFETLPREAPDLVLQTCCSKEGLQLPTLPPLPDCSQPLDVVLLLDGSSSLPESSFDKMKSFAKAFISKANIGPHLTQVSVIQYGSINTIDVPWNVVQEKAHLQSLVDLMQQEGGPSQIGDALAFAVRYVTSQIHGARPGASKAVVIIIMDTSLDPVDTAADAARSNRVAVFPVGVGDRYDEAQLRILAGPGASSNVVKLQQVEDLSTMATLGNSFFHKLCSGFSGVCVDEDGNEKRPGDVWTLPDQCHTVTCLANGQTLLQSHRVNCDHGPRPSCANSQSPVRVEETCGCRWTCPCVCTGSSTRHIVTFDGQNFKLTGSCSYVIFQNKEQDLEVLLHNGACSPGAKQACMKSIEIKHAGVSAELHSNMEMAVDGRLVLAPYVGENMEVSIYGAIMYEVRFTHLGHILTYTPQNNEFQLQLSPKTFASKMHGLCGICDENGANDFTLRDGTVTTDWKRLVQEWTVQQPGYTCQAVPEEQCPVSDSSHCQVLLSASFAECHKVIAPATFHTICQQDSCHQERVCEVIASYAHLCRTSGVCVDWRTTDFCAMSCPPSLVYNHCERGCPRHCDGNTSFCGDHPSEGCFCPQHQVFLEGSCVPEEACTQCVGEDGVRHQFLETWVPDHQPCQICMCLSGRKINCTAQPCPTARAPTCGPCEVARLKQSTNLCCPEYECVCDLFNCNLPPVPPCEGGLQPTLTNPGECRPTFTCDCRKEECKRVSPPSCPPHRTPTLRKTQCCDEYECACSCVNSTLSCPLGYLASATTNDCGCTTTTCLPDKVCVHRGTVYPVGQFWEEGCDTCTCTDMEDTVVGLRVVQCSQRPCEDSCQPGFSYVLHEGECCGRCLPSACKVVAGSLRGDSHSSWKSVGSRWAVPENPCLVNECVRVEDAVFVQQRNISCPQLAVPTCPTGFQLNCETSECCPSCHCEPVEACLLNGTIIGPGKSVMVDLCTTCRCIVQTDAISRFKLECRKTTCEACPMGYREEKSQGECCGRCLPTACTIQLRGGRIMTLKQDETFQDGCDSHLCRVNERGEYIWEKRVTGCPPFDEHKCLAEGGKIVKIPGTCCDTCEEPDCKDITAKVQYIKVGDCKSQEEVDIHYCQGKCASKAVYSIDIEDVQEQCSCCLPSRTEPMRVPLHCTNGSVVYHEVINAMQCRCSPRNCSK

binding result [1]: no binding
B1: ADAMTS13 metalloprotease domain alone (enzyme, UniProt Q76LX8 75-289, looked up)
chain: AAGGILHLELLVAVGPDVFQAHQEDTERYVLTNLNIGAELLRDPSLGAQFRVHLVKMVILTEPEGAPNITANLTSSLLSVCGWSQTINPEDDTDPGHADLVLYITRFDLELPDGNRQVRGVTQLGGACSPTWSCLITEDTGFDLGVTIAHEIGHSFGLEHDGAPGSGCGPSGHVMASDGAAPRAGLAWSPCSRRQLLSLLSAGRARCVWDPPRPQ
notes: domain: metalloprotease domain

Kd (murine vWF): ~1.7 nM
B2: canine FVIII-SQ (other, UniProt O18806 20-2343, looked up)
chain: ATRKYYLGAVELSWDYMQSDLLSALHADTSFSSRVPGSLPLTTSVTYRKTVFVEFTDDLFNIAKPRPPWMGLLGPTIQAEVYDTVVIVLKNMASHPVSLHAVGVSYWKASEGAEYEDQTSQKEKEDDNVIPGESHTYVWQVLKENGPMASDPPCLTYSYFSHVDLVKDLNSGLIGALLVCKEGSLAKERTQTLQEFVLLFAVFDEGKSWHSETNASLTQAEAQHELHTINGYVNRSLPGLTVCHKRSVYWHVIGMGTTPEVHSIFLEGHTFLVRNHRQASLEISPITFLTAQTFLMDLGQFLLFCHIPSHQHDGMEAYVKVDSCPEEPQLRMKNNEDKDYDDGLYDSDMDVVSFDDDSSSPFIQIRSVAKKHPKTWVHYIAAEEEDWDYAPSGPTPNDRSHKNLYLNNGPQRIGKKYKKVRFVAYTDETFKTREAIQYESGILGPLLYGEVGDTLLIIFKNQASRPYNIYPHGINYVTPLHTGRLPKGVKHLKDMPILPGEIFKYKWTVTVEDGPTKSDPRCLTRYYSSFINLERDLASGLIGPLLICYKESVDQRGNQMMSDKRNVILFSVFDENRSWYLTENMQRFLPNADVVQPHDPEFQLSNIMHSINGYVFDNLQLSVCLHEVAYWYILSVGAQTDFLSVFFSGYTFKHKMVYEDTLTLFPFSGETVFMSMENPGLWVLGCHNSDFRNRGMTALLKVSSCNRNIDDYYEDTYEDIPTPLLNENNVIKPRSFSQNPPVSKHHQREITVTTLQPEEDKFEYDDTFSIEMKREDFDIYGDYENQGLRSFQKKTRHYFIAAVERLWDYGMSRSPHILRNRAQSGDVQQFKKVVFQEFTDGSFTQPLYRGELNEHLGLLGPYIRAEVEDNIVVTFKNQASRPYSFYSSLISYDEDEGQGAEPRRKFVNPNETKIYFWKVQHHMAPTKDEFDCKAWAYFSDVDLEKDVHSGLIGPLLICRSNTLNPAHGRQVTVQEFALVFTIFDETKSWYFTENLERNCRAPCNVQKEDPTLKENFRFHAINGYVKDTLPGLVMAQDQKVRWYLLSMGSNENIHSIHFSGHVFTVRKKEEYKMAVYNLYPGVFETVEMLPSQVGIWRIECLIGEHLQAGMSTLFLVYSKKCQTPLGMASGHIRDFQITASGQYGQWAPKLARLHYSGSINAWSTKDPFSWIKVDLLAPMIIHGIMTQGARQKFSSLYVSQFIIMYSLDGNKWHSYRGNSTGTLMVFFGNVDSSGIKHNIFNPPIIAQYIRLHPTHYSIRSTLRMELLGCDFNSCSMPLGMESKAISDAQITASSYLSSMLATWSPSQARLHLQGRTNAWRPQANNPKEWLQVDFRKTMKVTGITTQGVKSLLISMYVKEFLISSSQDGHNWTLFLQNGKVKVFQGNRDSSTPVRNRLEPPLVARYVRLHPQSWAHHIALRLEVLGCDTQQPA
notes: also called canine B-domain deleted factor VIII
